Reference: patent publication US20020106675

Target: F7 protein

B1: Pfu DNA polymerase (α-type DNA polymerase) (protein)
chain: MILDVDYITEEGKPVIRLFKKENGKFKIEHDRTFRPYIYALLRDDSKIEEVKKITGERHGKIVRIVDVEKVEKKFLGKPITVWKLYLEHPQDVPTIREKVREHPAVVDIFEYDIPFAKRYLIDKGLIPMEGEEELKILAFDIETLYHEGEEFGKGPIIMISYADENEAKVITWKNIDLPYVEVVSSEREMIKRFLRIIREKDPDIIVTYNGDSFDFPYLAKRAEKLGIKLTIGRDGSEPKMQRIGDMTAVEVKGRIHFDLYHVITRTINLPTYTLEAVYEAIFGKPKEKVYADEIAKAWESGENLERVAKYSMEDAKATYELGKEFLPMEIQLSRLVGQPLWDVSRSSTGNLVEWFLLRKAYERNEVAPNKPSEEEYQRRLRESYTGGFVKEPEKGLWENIVYLDFRALYPSIIITHNVSPDTLNLEGCKNYDIAPQVGHKFCKDIPGFIPSLLGHLLEERQKIKTKMKETQDPIEKILLDYRQKAIKLLANSFYGYYGYAKARWYCKECAESVTAWGRKYIELVWKELEEKFGFKVLYIDTDGLYATIPGGESEEIKKKALEFVKYINSKLPGLLELEYEGFYKRGFFVTKKRYAVIDEEGKVITRGLEIVRRDWSEIAKETQARVLETILKHGDVEEAVRIVKEVIQKLANYEIPPEKLAIYEQITRPLHEYKAIGPHVAVAKKLAAKGVKIKPGMVIGYIVLRGDGPISNRAILAEEYDPKKHKYDAEYYIENQVLPAVLRILEGFGYRKEDLRYQKTRQVGLTSWLNIKKS
  ratio of the primer extension activity to the incorporation activity, about 320 kilodalton gel filtration fraction (Pfu DNA polymerase-F7 complex); about 76 kilodalton fraction (Pfu DNA polymerase alo): the ratio of 0.65 was obtained for the about 320 kilodalton fraction
